Legend:
[1] = molecular target: activated factor IX (FIXa); test: cell-based or functional assay
[2] = molecular target: T1, native rVWF 133P1 (human, UniProt P04275 764-2813); test: SPR (Biacore 3000): native rVWF 133P1 immobilized on CM5 chip, FVIII sample in flow, 1:1 Langmuir model
T1 construct: mature; Starting material for PEGylation; multimers of the mature monomer (about 260 kDa on reducing SDS-PAGE); also called unmodified rVWF

lag phase (min), FIXa-cofactor activity after thrombin activation [1]: 1.13 min
lag phase (min), FIXa-cofactor activity without thrombin activation [1]: 1.8 min
maximum FXa (nM), FIXa-cofactor activity after thrombin activation [1]: 33.7 nM
maximum FXa (nM), FIXa-cofactor activity without thrombin activation [1]: 39.6 nM
maximum rate (nM FXa/min), FIXa-cofactor activity after thrombin activation [1]: 9.79 nM FXa/min
maximum rate (nM FXa/min), FIXa-cofactor activity without thrombin activation [1]: 8.8 nM FXa/min
t1/2 of maximum (min), FIXa-cofactor activity after thrombin activation [1]: 2.85 min
t1/2 of maximum (min), FIXa-cofactor activity without thrombin activation [1]: 4 min
Kd [2]: 0.55 nM
B1: FVIII control (mock preparation, not PEGylated) (other)
chain: ATRRYYLGAVELSWDYMQSDLGELPVDARFPPRVPKSFPFNTSVVYKKTLFVEFTDHLFNIAKPRPPWMGLLGPTIQAEVYDTVVITLKNMASHPVSLHAVGVSYWKASEGAEYDDQTSQREKEDDKVFPGGSHTYVWQVLKENGPMASDPLCLTYSYLSHVDLVKDLNSGLIGALLVCREGSLAKEKTQTLHKFILLFAVFDEGKSWHSETKNSLMQDRDAASARAWPKMHTVNGYVNRSLPGLIGCHRKSVYWHVIGMGTTPEVHSIFLEGHTFLVRNHRQASLEISPITFLTAQTLLMDLGQFLLFCHISSHQHDGMEAYVKVDSCPEEPQLRMKNNEEAEDYDDDLTDSEMDVVRFDDDNSPSFIQIRSVAKKHPKTWVHYIAAEEEDWDYAPLVLAPDDRSYKSQYLNNGPQRIGRKYKKVRFMAYTDETFKTREAIQHESGILGPLLYGEVGDTLLIIFKNQASRPYNIYPHGITDVRPLYSRRLPKGVKHLKDFPILPGEIFKYKWTVTVEDGPTKSDPRCLTRYYSSFVNMERDLASGLIGPLLICYKESVDQRGNQIMSDKRNVILFSVFDENRSWYLTENIQRFLPNPAGVQLEDPEFQASNIMHSINGYVFDSLQLSVCLHEVAYWYILSIGAQTDFLSVFFSGYTFKHKMVYEDTLTLFPFSGETVFMSMENPGLWILGCHNSDFRNRGMTALLKVSSCDKNTGDYYEDSYEDISAYLLSKNNAIEPRSFSQNSRHPSQNPPVLKRHQREITRTTLQSDQEEIDYDDTISVEMKKEDFDIYDEDENQSPRSFQKKTRHYFIAAVERLWDYGMSSSPHVLRNRAQSGSVPQFKKVVFQEFTDGSFTQPLYRGELNEHLGLLGPYIRAEVEDNIMVTFRNQASRPYSFYSSLISYEEDQRQGAEPRKNFVKPNETKTYFWKVQHHMAPTKDEFDCKAWAYFSDVDLEKDVHSGLIGPLLVCHTNTLNPAHGRQVTVQEFALFFTIFDETKSWYFTENMERNCRAPCNIQMEDPTFKENYRFHAINGYIMDTLPGLVMAQDQRIRWYLLSMGSNENIHSIHFSGHVFTVRKKEEYKMALYNLYPGVFETVEMLPSKAGIWRVECLIGEHLHAGMSTLFLVYSNKCQTPLGMASGHIRDFQITASGQYGQWAPKLARLHYSGSINAWSTKEPFSWIKVDLLAPMIIHGIKTQGARQKFSSLYISQFIIMYSLDGKKWQTYRGNSTGTLMVFFGNVDSSGIKHNIFNPPIIARYIRLHPTHYSIRSTLRMELMGCDLNSCSMPLGMESKAISDAQITASSYFTNMFATWSPSKARLHLQGRSNAWRPQVNNPKEWLQVDFQKTMKVTGVTTQGVKSLLTSMYVKEFLISSSQDGHQWTLFFQNGKVKVFQGNQDSFTPVVNSLDPPLLTRYLRIHPQSWVHQIALRMEVLGCEAQDLY

Reference: patent US20080234193A1 (published 2008)
